Results: article PMC4602035

What was measured:
[1] = target: SecYEG in nanodiscs (titration with FtsY(NBD)) (E. coli) (UniProt P0AGA2); test: other fluorescence titration
[2] = target: nontranslating ribosomes (E. coli) (UniProt P0ADZ0); test: co-sedimentation
[3] = target: SecY(S111C)EG labeled with MDCC at position 111 of SecY (E. coli) (UniProt P0AGA2); test: FRET or BRET

FtsY(A26C) labeled with NBD at position 26 (from UniProt P10121 1-497) (receptor)
Kd [1]: 160 nM

B1: SRP present in the ribosome and RNC preparations (complex)
chain: MFDNLTDRLSRTLRNISGRGRLTEDNVKDTLREVRMALLEADVALPVVREFINRVKEKAVGHEVNKSLTPGQEFVKIVRNELVAAMGEENQTLNLAAQPPAVVLMAGLQGAGKTTSVGKLGKFLREKHKKKVLVVSADVYRPAAIKQLETLAEQVGVDFFPSDVGQKPVDIVNAALKEAKLKFYDVLLVDTAGRLHVDEAMMDEIKQVHASINPVETLFVVDAMTGQDAANTAKAFNEALPLTGVVLTKVDGDARGGAALSIRHITGKPIKFLGVGEKTEALEPFHPDRIASRILGMGDVLSLIEDIESKVDRAQAEKLASKLKKGDGFDLNDFLEQLRQMKNMGGMASLMGKLPGMGQIPDNVKSQMDDKVLVRMEAIINSMTMKERAKPEIIKGSRKRRIAAGCGMQVQDVNRLLKQFDDMQRMMKKMKKGGMAKMMRSMKGMMPPGFPGR
percent of ribosomes/RNCs with SRP bound [2]: 25%

B2: FtsY(F196C) labeled with BODIPY FL at position 196 (receptor)
chain: MAKEKKRGFFSWLGFGQKEQTPEKETEVQNEQPVVEEIVQAQEPVKASEQAVEEQPQAHTEAEAETFAADVVEVTEQVAESEKAQPEAEVVAQPEPVVEETPEPVAIEREELPLPEDVNAEAVSPEEWQAEAETVEIVEAAEEEAAKEEITDEELETALAAEAAEEAVMVVPPAEEEQPVEEIAQEQEKPTKEGFCARLKRSLLKTKENLGSGFISLFRGKKIDDDLFEELEEQLLIADVGVETTRKIITNLTEGASRKQLRDAEALYGLLKEEMGEILAKVDEPLNVEGKAPFVILMVGVNGVGKTTTIGKLARQFEQQGKSVMLAAGDTFRAAAVEQLQVWGQRNNIPVIAQHTGADSASVIFDAIQAAKARNIDVLIADTAGRLQNKSHLMEELKKIVRVMKKLDVEAPHEVMLTIDASTGQNAVSQAKLFHEAVGLTGITLTKLDGTAKGGVIFSVADQFGIPIRYIGVGERIEDLRPFKADDFIEALFARED
modifications: BODIPY FL (Bpy) on cysteine 196
Kd [3]: 180 nM
